Reference: publication PMC5762688 (2018)

Tests used:
[1] = target: His6-importin α2/GST-importin β1 heterodimer (mouse), pre-dimerized (mouse, UniProt P52293 1-529; P70168 1-876)
[2] = target: GST-exportin-1-His6/Ran-GTPγS complex, preformed (UniProt O14980 1-1071; P62826 1-216)
Chain of GST-exportin-1-His6/Ran-GTPγS complex, preformed (O14980 whole entry, one chain of several): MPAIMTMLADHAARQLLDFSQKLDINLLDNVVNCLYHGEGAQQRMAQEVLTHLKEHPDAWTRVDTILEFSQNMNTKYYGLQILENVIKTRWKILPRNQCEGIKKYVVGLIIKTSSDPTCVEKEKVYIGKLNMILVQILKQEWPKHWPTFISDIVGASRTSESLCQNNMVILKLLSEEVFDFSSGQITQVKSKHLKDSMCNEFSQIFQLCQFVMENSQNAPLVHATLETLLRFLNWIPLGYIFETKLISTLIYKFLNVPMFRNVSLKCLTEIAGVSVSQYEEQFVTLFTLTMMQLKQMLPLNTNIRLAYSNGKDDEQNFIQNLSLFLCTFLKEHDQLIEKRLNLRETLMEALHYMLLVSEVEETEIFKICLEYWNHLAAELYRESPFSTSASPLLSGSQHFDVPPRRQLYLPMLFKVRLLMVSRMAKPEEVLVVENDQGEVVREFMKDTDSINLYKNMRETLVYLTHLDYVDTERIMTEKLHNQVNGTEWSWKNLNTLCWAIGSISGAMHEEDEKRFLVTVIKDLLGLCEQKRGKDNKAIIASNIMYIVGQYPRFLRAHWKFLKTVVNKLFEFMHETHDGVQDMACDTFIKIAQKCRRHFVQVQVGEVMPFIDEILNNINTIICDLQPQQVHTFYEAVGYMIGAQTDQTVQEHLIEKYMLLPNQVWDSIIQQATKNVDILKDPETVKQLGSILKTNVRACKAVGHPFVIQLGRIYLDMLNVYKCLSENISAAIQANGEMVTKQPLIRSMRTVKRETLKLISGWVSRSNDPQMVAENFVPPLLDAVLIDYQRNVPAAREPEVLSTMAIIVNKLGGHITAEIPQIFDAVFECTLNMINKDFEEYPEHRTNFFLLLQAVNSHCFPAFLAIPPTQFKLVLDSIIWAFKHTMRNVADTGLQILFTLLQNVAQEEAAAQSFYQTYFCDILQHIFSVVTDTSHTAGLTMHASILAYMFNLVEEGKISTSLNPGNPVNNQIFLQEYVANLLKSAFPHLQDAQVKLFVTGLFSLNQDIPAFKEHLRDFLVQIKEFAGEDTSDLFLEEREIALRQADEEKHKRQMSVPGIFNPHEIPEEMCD

B1: Biotinylated Hendra virus V protein (natural protein)
chain: MDKLDLVNDGLDIIDFIQKNQKEIQKTYGRSSIQQPSTKDRTRAWEDFLQSTSGEHEQAEGGMPKNDGGTEGRNVEDLSSVTSSDGTIGQRVSNTRAWAEDPDDIQLDPMVTDVVYHDHGGECTGHGPSSSPERGWSYHMSGTHDGNVRAVPDTKVLPNAPKTTVPEEVREIDLIGLEDKFASAGLNPAAVPFVPKNQSTPTEEPPVIPEYYYGSGRRGDLSKSPPRGNVNLDSIKIYTSDDEDENQLEYEDEFAKSSSEVVIDTTPEDNDSINQEEVVGDPSDQGLEHPFPLGKFPEKEETPDVRRKDSLMQDSCKRGGVPKRLPMLSEEFECSGSDDPIIQELEREGSHPGGSLRLREPPQSSGNSRNQPDRQLKTGDAASPGGVQRPGTPMPKSRIMPIKKGHRREVSICWDGRRAWVEEWCNPVCSRITPQPRKQECYCGECPTECSQCCHEE
Kd [1]: 0.0149 µM
Kd [2]: 0.0092 µM
